Measured values taken from PMC6168863.

Target: SsaL-3Flag (Salmonella enterica serovar Typhimurium (strain 12023))
Test: co-IP; Bacteria grown 6 h in MgM-MES at pH 5.0; lysate in PBS, 1 mM PMSF, 0.5% Triton X-100; SsaL-3Flag precipitated with anti-Flag M2 affinity agarose for 3 h at 4°C and eluted with 3Flag peptide; SsaV detected with anti-His antibody. Strains: wt background, ssaV^V632D, ΔssaP (with or without pssaP), and ΔssaU expressing SsaU^N262A

Sequence of SsaV-6×His (P74856 whole entry): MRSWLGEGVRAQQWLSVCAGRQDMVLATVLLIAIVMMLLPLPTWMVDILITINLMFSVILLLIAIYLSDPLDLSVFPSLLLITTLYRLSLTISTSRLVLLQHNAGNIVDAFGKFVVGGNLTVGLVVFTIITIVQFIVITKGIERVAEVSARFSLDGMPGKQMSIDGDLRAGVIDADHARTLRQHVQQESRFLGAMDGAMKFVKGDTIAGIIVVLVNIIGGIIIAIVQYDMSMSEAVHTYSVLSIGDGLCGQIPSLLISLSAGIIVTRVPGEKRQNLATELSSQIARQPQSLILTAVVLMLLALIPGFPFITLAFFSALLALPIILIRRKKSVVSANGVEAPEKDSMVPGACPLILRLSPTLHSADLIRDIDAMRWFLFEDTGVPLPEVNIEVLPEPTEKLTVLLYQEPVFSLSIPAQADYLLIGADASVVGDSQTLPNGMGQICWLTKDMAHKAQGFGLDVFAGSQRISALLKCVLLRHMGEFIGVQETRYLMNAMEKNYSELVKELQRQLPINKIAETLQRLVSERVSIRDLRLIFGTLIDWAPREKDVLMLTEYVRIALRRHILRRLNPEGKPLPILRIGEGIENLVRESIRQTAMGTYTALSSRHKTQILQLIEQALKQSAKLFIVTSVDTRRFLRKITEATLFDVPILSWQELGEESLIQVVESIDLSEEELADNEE

SsaV-6×His (from UniProt P74856 1-681) (natural protein)
percent decrease of SsaV-6×His co-immunoprecipitated with SsaL-3Flag in the absence of SsaP (ΔssaP): 43.6% | percent decrease of SsaV-6×His co-immunoprecipitated with SsaL-3Flag in the absence of normally cleaved SsaU (ΔssaU expressing SsaU^N262A): 46.2%
